Assay [1] has as its target T1, human pituitary adenylate cyclase-activating polypeptide type I receptor (human, UniProt P41586 21-468).
T1 construct: whole, on cells; On SH-SY5Y or recombinant CHO cells (cAMP assay), as membranes of hPAC-1 AequoScreen CHO cells (radioligand assay) and on CHOK1/huPac1 whole cells (KinExA); also called human PAC1; hPAC1
T1 sequence (looked up): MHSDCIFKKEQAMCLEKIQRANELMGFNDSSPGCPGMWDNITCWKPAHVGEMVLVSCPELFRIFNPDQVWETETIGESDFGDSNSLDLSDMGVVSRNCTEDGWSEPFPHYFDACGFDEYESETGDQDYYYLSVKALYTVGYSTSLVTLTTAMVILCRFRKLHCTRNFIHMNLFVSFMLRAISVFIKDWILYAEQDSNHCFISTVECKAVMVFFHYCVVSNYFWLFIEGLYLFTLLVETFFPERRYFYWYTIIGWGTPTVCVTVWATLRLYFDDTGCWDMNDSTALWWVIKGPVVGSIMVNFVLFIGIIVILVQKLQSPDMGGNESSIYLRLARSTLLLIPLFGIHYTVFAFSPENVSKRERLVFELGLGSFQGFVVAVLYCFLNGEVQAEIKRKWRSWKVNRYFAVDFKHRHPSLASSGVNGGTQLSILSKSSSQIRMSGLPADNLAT
In words: radioligand competition, hPAC1 CHO membranes; competitor 125I-28A. (Loss of bound radioactivity is the signal in a displacement assay; it reports binding, not function.)
Procedure: (§1) The plates were incubated at room temperature for 2 hours with shaking at 60 rpm, and then the contents of each well were filtered over 0.5% polyethyleneimine (PEI)-treated (for at least two hours) GF/C 96-well filter plates. The GF/C filter plates were washed five times with ice-cold 50 mM Tris, pH 7.5 and dried in an oven at 55° C. for 1 hour. The bottoms of the GF/C plates were then sealed. 40 μl Microscint™ 20 was added to each well, the tops of the GF/C plates were sealed with TopSeal™-A (a press-on adhesive sealing film), and the GF/C plates were counted with TopCount NXT (Packard). The data were analyzed using Prizm (GraphPad Software Inc.)

Assay [2] concerns the target T1, human pituitary adenylate …. In words: radioligand competition, hPAC1 CHO membranes; competitor 125I-29A.
Procedure: as §1
Assay [3] has the same target. As to the kind of experiment: KinExA, CHOK1/huPac1 whole cells. On the technique in general: Kinetic exclusion samples the free partner from a solution-phase mixture.
Procedure: Binding of anti-Pac1 antibody with CHOK1/huPac1 cells were tested on KinExA. […] Samples containing anti-Pac1 antibody and whole cells were incubated with rotation at room temperature for 4 hours before 5-minute 220-g centrifugation at 4° C. to separate the whole cells and anti-Pac1 antibody-cell complexes from unbound anti-Pac1 antibody. The supernatants containing free anti-Pac1 antibody were filtered through 0.22 μm filter before loading to the goat-anti-huFc-coated beads on KinExA. […] The binding signal is proportional to the concentration of free anti-Pac1 antibody in solution at each cell density. Equilibrium dissociation constant (KD) was estimated by n-curve analysis in KinExA™ Pro software (Sapidyne Instruments, Inc., Boise, Id.).
Assay [4] shares this target. As to the kind of experiment: radioligand competition, hPAC1 CHO membranes; competitor 125I-29B.
Procedure: as §1
Assay [5] shares this target. As to the kind of experiment: radioligand competition, hPAC1 CHO membranes; competitor 125I-14A.
Procedure: as §1
Assay [6] has the same target. In words: radioligand competition, hPAC1 CHO membranes; competitor 125I-26A.
Procedure: as §1
For assay [7] the target is unchanged. As to the kind of experiment: radioligand competition, hPAC1 CHO membranes; competitor 125I-01B.
Procedure: as §1
Assay [8] has the same target. As to the kind of experiment: radioligand competition, hPAC1 CHO membranes; competitor 125I-39A.
Procedure: as §1
The target is the same in assay [9]. As to the kind of experiment: radioligand competition, hPAC1 CHO membranes; competitor 125I-39B.
Procedure: as §1
Assay [10] has the same target. In words: radioligand competition, hPAC1 CHO membranes; competitor 125I-26B.
Procedure: as §1
The target is the same in assay [11]. In words: radioligand competition, hPAC1 CHO membranes; competitor 125I-14B.
Procedure: as §1
A further assay addresses T2, VPAC2.
T2 sequence (P41587 whole entry, species assumed, looked up): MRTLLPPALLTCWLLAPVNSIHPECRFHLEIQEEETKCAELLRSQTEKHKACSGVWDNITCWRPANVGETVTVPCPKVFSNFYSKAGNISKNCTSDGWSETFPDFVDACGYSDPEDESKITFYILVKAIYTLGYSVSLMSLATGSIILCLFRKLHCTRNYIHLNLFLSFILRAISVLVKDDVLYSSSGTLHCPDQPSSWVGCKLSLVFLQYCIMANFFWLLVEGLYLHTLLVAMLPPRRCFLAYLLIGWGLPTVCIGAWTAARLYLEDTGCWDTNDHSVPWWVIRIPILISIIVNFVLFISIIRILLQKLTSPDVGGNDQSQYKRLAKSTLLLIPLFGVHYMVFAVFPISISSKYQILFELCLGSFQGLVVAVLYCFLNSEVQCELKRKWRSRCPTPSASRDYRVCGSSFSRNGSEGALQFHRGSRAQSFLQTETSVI
In words: cell-based or functional assay.

For the next assay, the target named is cyno PAC1 (cynomolgus). As to the kind of experiment: cell-based or functional assay.
For the next assay, the target named is T3, human VPAC2 (human, UniProt P41587 24-438).
T3 sequence (looked up): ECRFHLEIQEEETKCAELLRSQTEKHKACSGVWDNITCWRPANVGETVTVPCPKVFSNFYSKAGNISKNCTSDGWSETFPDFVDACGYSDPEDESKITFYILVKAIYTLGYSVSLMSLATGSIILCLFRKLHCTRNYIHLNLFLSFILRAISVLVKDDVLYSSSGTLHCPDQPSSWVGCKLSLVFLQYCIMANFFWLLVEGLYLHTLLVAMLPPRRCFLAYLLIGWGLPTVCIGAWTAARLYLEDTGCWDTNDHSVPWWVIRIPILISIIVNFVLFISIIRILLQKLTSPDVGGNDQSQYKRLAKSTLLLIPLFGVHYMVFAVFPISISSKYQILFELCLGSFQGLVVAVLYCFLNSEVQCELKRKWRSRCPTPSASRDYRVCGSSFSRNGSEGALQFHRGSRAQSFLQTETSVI
In words: cell-based or functional assay.

The next assay deals with T4, human VPAC1 (human, UniProt P32241 31-457).
T4 sequence (looked up): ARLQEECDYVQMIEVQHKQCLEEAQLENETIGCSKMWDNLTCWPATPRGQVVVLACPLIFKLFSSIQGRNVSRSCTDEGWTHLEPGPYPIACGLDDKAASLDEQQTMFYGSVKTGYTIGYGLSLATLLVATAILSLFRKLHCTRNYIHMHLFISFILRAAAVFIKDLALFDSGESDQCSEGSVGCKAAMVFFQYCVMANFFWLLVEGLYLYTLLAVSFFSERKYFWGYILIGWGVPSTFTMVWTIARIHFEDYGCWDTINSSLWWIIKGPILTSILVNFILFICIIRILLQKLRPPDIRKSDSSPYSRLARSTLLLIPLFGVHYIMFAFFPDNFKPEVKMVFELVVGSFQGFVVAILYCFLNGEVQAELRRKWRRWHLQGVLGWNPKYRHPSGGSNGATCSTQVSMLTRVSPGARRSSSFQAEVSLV
In words: cell-based or functional assay.

Residue numbers refer to the chain shown, from its start. Where “and” joins values, the source holds several entries; their conditions need not be identical. Equal entries are not always repeated. Where no end group is shown, it is not given here.

As usually defined, the Ki is a dissociation constant, usually derived from enzyme kinetics or from competition with a known ligand. Higher therefore signals weaker binding. By Kd is commonly meant a measure of binding affinity in units of concentration. Lower therefore signals higher affinity.

B1: 03A (antibody, human IgG2, kappa, V domains shown)
VH: QVQLVESGGGVVQPGRSLRLSCAASGFTFSYYAIHWVRQAPGKGLEWVAVISYDGSNKYYADSVKGRFTISRDNSKNTLYLQMNSLRAEDTAVYYCARGYDLLTGYPDYWGQGTLVTVSS
VL: DIQLTQSPSFLSASVGDRVTITCRASQSIGRSLHWYQQKPGKAPKLLIKYASQSLSGVPSRFSGSGSGTEFTLTISSLQPEDFATYYCHQSSRLPFTFGPGTKVDIKR
notes: also called LC-03 and HC-03
On to B1, for which the Ki in assay [1] worked out at 0.01 nM; in assay [2] it was 0.14 nM. In assay [3], this molecule showed a dissociation constant (Kd) of 0.126 nM.

B2: 28A (antibody, human IgG2, kappa, V domains shown)
VH: B1 VH with Y31R, I34M, P41S, Q82L, N84S, Y94F, L102I
VL: EIVLTQSPDFQSVTPKEKVTITCRASQSIGRSLHWYQQKPDQSPKLLFKYASQSLSGVPSRFSGSGSGTDFTLTINSLEAEDAATYYCHQSSRLPFTFGPGTKVDIKR
notes: also called LC-10 and HC-39
With B2, the results for the inhibitory constant (Ki) in assay [1] and in [2] were under 0.01 nM and 0.04 nM, respectively.

B3: 29A (antibody, human IgG2, kappa)
heavy: QVQLVESGGGVVQPGRSLRLSCAASGFTFSRYAMHWVRQASGKGLEWVAVISYDGSNKYYADSVKGRFTISRDNSKNTLYLLMSSLRAEDTAVFYCARGYDILTGYPDYWGQGTLVTVSSASTKGPSVFPLAPCSRSTSESTAALGCLVKDYFPEPVTVSWNSGALTSGVHTFPAVLQSSGLYSLSSVVTVPSSNFGTQTYTCNVDHKPSNTKVDKTVERKCCVECPPCPAPPVAGPSVFLFPPKPKDTLMISRTPEVTCVVVDVSHEDPEVQFNWYVDGVEVHNAKTKPREEQFNSTFRVVSVLTVVHQDWLNGKEYKCKVSNKGLPAPIEKTISKTKGQPREPQVYTLPPSREEMTKNQVSLTCLVKGFYPSDIAVEWESNGQPENNYKTTPPMLDSDGSFFLYSKLTVDKSRWQQGNVFSCSVMHEALHNHYTQKSLSLSPGK
light: DIQLTQSPSFLSASVGDRVTITCRASQSIGRSLHWYQQKPGKAPKLLFKYASQSLSGVPSRFSGSGSGTEFTLTISSLQPEDFATYYCHQSSRLPFTFGPGTKVDIKRTVAAPSVFIFPPSDEQLKSGTASVVCLLNNFYPREAKVQWKVDNALQSGNSQESVTEQDSKDSTYSLSSTLTLSKADYEKHKVYACEVTHQGLSSPVTKSFNRGEC
notes: also called LC-11 and HC-39
Take B3: the inhibitory constant (Ki) in [4] came out at 0.09 nM; in [5] it was 0.07 nM; in assay [2] it was 0.04 nM; in [6] it was 0.03 nM; in assay [7], 0.13 nM; in [8], 0.06 nM. The figures for the Ki in [9], in assay [10] and in [11] were 0.08 nM, 0.11 nM and 0.1 nM, respectively. In assay [3], the dissociation constant (Kd) was 0.013 nM.

B4: 05A (antibody, human IgG2, kappa, V domains shown)
VH: QVQLVESGGGVVQPGRSLRLSCAASGFTFSRFAMHWVRRAPGKGLEWVAVISYDGGNKYYAESVKGRFTISRDNSKNTLNLLMNSLRAEDTALFYCARGYDVLTGYPDYWGQGTLVTVSS
VL: B1 VL
notes: also called LC-05 and HC-06
With B4, the inhibitory constant (Ki) is 0.02 nM in assay [1] and 0.03 nM in assay [2].

As to HSDGIFTDSYSRYRKQMAVKKYLAAVLGKRYKQRVKNK (ligand, UniProt P18509 132-169, looked up, ends and bridges not checked) [PACAP38], in the assay with VPAC2, the “VPAC2 EC50 (agonist activity)” value stood at 0.06 nM.

B5: 39A (antibody, human IgG2, kappa)
heavy: QVQLQESGPGLVKPSQTLSLTCTVSGGSISSGGYYWSWIRQHPGKGLEWIGYIYYSGNTYYNPSLKSRVTISGDTSKNQFSLKLRSVTAADTAVYYCTRGGAARGMDVWGQGTTVTVSSASTKGPSVFPLAPCSRSTSESTAALGCLVKDYFPEPVTVSWNSGALTSGVHTFPAVLQSSGLYSLSSVVTVPSSNFGTQTYTCNVDHKPSNTKVDKTVERKCCVECPPCPAPPVAGPSVFLFPPKPKDTLMISRTPEVTCVVVDVSHEDPEVQFNWYVDGVEVHNAKTKPREEQFNSTFRVVSVLTVVHQDWLNGKEYKCKVSNKGLPAPIEKTISKTKGQPREPQVYTLPPSREEMTKNQVSLTCLVKGFYPSDIAVEWESNGQPENNYKTTPPMLDSDGSFFLYSKLTVDKSRWQQGNVFSCSVMHEALHNHYTQKSLSLSPGK
light: not shown
notes: also called 39A lot1; 39A lot2
With B5, the inhibitory constant (Ki) in assay [4] was 0.08 nM and 0.14 nM; in assay [5] it was 0.2 nM; in assay [6], 0.13 nM; in assay [7] it was 0.3 nM and 0.15 nM; in assay [8] it was 0.16 nM; in assay [9], 0.2 nM and 0.18 nM. Besides, the Ki in assay [10] is 0.17 nM and 0.14 nM; in assay [11], 0.24 nM and 0.43 nM. Besides, the Kd in assay [3] came out at 0.036 nM.

B6: 26B (antibody, human IgG1, kappa, N297G)
heavy: not shown
light: B3 light with F48I
For the molecule B6, in the assay with cyno PAC1, the “cyno PAC1 IC50 (cAMP assay)” value amounted to 1.3 nM. Also, in the assay with human VPAC2, the “hVPAC2 IC50 (cAMP assay)” value was over 10000 nM. The “hVPAC1 IC50 (cAMP assay)” value with human VPAC1 was over 10000 nM.

B7: 38A (antibody, human IgG2, kappa, V domains shown)
VH: QVQLQESGPGLVKPSQTLSLTCTVSGGSISRGGYYWSWIRQHPGKGLEWIGYIYYSGNTYYNPSLKSRVIISGDTSKNQLSLKLRSVTAADTAVYYCARGGAARGMDVWGQGTTVTVSS
VL: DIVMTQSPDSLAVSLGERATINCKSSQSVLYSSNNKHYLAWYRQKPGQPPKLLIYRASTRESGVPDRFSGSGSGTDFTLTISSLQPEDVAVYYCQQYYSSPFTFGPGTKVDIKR
notes: also called LC-18 and HC-50
With B7, the Ki in assay [5] stood at 0.07 nM; in assay [6] it was 0.07 nM; in [8], 0.11 nM. In [3], this molecule came in with a Kd of 0.016 nM.

B8: 14B (antibody, human IgG1, kappa, N297G)
heavy: not shown
light: EIVLTQSPATLSLSPGERATLSCRASQSVGRSLHWYQQKPGQAPRLLIKYASQSLSGIPARFSGSGSGTDFTLTISSLEPEDFAVYYCHQSSRLPFTFGPGTKVDIKRTVAAPSVFIFPPSDEQLKSGTASVVCLLNNFYPREAKVQWKVDNALQSGNSQESVTEQDSKDSTYSLSSTLTLSKADYEKHKVYACEVTHQGLSSPVTKSFNRGEC
For B8, in the assay with cyno PAC1, the “cyno PAC1 IC50 (cAMP assay)” value stood at 0.6 nM. In the assay with human VPAC2, the “hVPAC2 IC50 (cAMP assay)” value is over 10000 nM. In the assay with human VPAC1, the “hVPAC1 IC50 (cAMP assay)” value is over 10000 nM.

The values are drawn from US20180362645A1 (Amgen, published 2018).
